The results in this text go back to the nanobody polyreactivity screen of Harvey et al. (2022).

The data set can be described thus: yeast display, Sf9 membrane polyspecificity reagent, FACS + sequencing; frameworks hold sequencing errors. In a few lines:
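Nanobodies came from a synthetic yeast display library in Saccharomyces cerevisiae BJ5465, induced with galactose for 36–48 hours and stained for 1 hour at 4 °C with 10% biotinylated, detergent-solubilized Sf9 membrane reagent. Cells were enriched on streptavidin microbeads and then FACS-sorted, with low and high (top ~1%) gates set on anti-HA fluorescence for expression and streptavidin fluorescence for reagent binding. Each polyreactivity label reflects the gate a clone came from. Genes were amplified by colony PCR, sequenced by MiSeq 2 × 250 and filtered by CDR length.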
“QVQLVESGGGLVQAGGSLRLSCAASGLIFRTYTMGWYRQAPGKERELVATITRRGGTTYYADSVKGRFTISRDNAKNTVYLQMNSLKPEDTAVYYCAKSPYYTWKYDYWGQGTQVTVSS”: the “polyreactivity (PSR sort gate)” value is “high polyreactivity”. The value for “QVQLVESGGGLVQAGGSLRLSCAASGLIFRWYAMGWSRQAPGKEWELVAAINYSGGRTYYADSVKGRFTISRDNAKNTVYLQMNSLKPEDTAVYYCAADGTYVWGSEEGNYWGQGTQVTVSS” was “low polyreactivity”; that for “QVQLVESGGGLVQAGGSLRLSCAASGLIFRYNAMGWYRQAPGKEMELVASITSDGSTNYADSVKGRFTISRDNAKNTVYLQMNSLKPEDTAVYYCAADGYTYWYYQLIPDYDYWGQGTQVTVSS” was “low polyreactivity”. As to “QVQLVESGGGLVQAGGSLRLSCAASGLIFRYYAMGWYRQAPGKERELVAAISYSGGRTYYADSVKGRFTISRDNAKNTVYLQMNSLKPEDTAVYYCAAVDRRGYRYALDYWGQGTQVTVSS”, the “polyreactivity (PSR sort gate)” value was “high polyreactivity”. As for “QVQLVESGGGLVQAGGSLRLSCAASGLIFRYYAMGWYRQATGKEREFVAAITWRTGSTYYADSVKGRFTISRDNAKNTVYLQMNSLKPEDTAVYYCAARGGRRYDYWGQGTQVTVSS”, the “polyreactivity (PSR sort gate)” value is on record as “high polyreactivity”. The value for “QVQLVESGGGLVQAGGSLRLSCAASGLIFSAYAMGWYRQAPGKERELVAGISRRGSTYYADSVKGRFTISRDNAKNTVYLQMNSLKPEDTAVYYCAAYFRVRFRASGYDYWGQGTQVTVSS” was “high polyreactivity”. The value for “QVQLVESGGGLVQAGGSLRLSCAASGLIFSDYAMGWYRQEPGKERELVAAIRSGGRTYYADSVKGRFTISRDNAKNTVYLQMNSLKPEDTAVYYCNKLYRRYPVPREYDYWGQGTQVTVSS” was “high polyreactivity”. “QVQLVESGGGLVQAGGSLRLSCAASGLIFSGYTMGWYRQAPGKERELVAAISKSGGNTYYADSVTGRFTISRDNAKNTVYLQMNSLKPEDTAVYYCNRDVTYYRGYDYWGQGTQVTVSS”: the “polyreactivity (PSR sort gate)” value is on record as “high polyreactivity”. For “QVQLVESGGGLVQAGGSLRLSCAASGLIFSHNVMGWYRQAPGKERELVAAISKGGGSTYYADSVKGRFTISRDNAKNTVYLQLNSLIPEDTAVYYCAAPYWSKYRQTEYDYWGQGTQVTVSS” the value was “high polyreactivity”.

As for “QVQLVESGGGLVQAGGSLRLSCAASGLIFSLYAMGWSRQAPGKDRELVADITVDGDGSTYYADSVKGRFTISRDIAKNTVYLQMNSLIPEDTAVYYCAADAYFGWYYYWGQGTQVTVSS”, the “polyreactivity (PSR sort gate)” value is recorded as “high polyreactivity”.

As to “QVQLVESGGGLVQAGGSLRLSCAASGLIFSRNAMGWYRQAPGKERELVAAISTGGSTYYADSVKGRFTISRDNAKNTVYLQMNSLKPEATAVYDCAAAPGYIYEYWGQGTQVTVSS”, the “polyreactivity (PSR sort gate)” value was “low polyreactivity”. For “QVQLVESGGGLVQAGGSLRLSCAASGLIFSRYTMGWYRQAPGKERELVAAISGRGTSTYYADSVKGRFTISRDNAKNTVYLQMNSLKPEDTAVYYCATSKSYSAFDYWGQGTQVTVSS” the value was “high polyreactivity”; for “QVQLVESGGGLVQAGGSLRLSCAASGLIFSSYAMGWYRQAPGKEREFVAAINYNGGRTYYADSVKGRFTISRDNAKNTVYLQMNSLKPEDTAVYYCDGRYGSGGDYWGQGTQVTVSS”, “low polyreactivity”. On to “QVQLVESGGGLVQAGGSLRLSCAASGLIFSSYAMGWYRQAPGKERELVAAITGSGGRTYYADSVKGRFTISRDNAKNTVYLQMNSLKPEDTAVYYCAAKYPAPRYYTGYDYWGQGTQVTVSS”, for which the “polyreactivity (PSR sort gate)” value is on record as “high polyreactivity”. For “QVQLVESGGGLVQAGGSLRLSCAASGLIFSVYGMGWYRQAPGKERELVAAISSRGGSTYYADSVKGRFTISRDLAKNTVYLQMNSLKQEDTAVYYCAARSNYRMDYWGQGTQVTVSS” the value was “high polyreactivity”; for “QVQLVESGGGLVQAGGSLRLSCAASGLIFSWYAMGWYRQAPGKERELVAAISSGSSTNYADSVKGRFTISRDNAKNTVYLQRNSLKPEDTAVYYCAARIYYTSRLRMYYWGQGTQVTVSS”, “high polyreactivity”.
